Assay results as given in patent US20170128554A1.

Target: Fetuin (denatured; sialylated complex N-linked glycans) (UniProt P12763)
Experiment: fetuin pull-down from cell lysates, low salt buffer, SDS-PAGE band quantification

Sequence of Fetuin (denatured; sialylated complex N-linked glycans) (P12763 19-359, one chain of several): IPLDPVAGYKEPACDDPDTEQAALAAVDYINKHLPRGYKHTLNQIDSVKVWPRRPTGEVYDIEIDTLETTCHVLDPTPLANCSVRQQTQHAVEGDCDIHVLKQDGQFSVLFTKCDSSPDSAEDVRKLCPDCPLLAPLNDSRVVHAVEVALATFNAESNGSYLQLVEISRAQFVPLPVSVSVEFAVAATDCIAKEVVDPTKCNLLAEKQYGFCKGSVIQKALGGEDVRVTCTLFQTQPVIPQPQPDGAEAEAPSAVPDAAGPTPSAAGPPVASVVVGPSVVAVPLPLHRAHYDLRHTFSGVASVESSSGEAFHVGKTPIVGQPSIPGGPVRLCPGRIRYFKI

Row | fold ability to be pulled down by immobilized fetuin, against wild type Fbs [times] | fold capacity to interact with fetuin, against wild type Fbs [fold] | Substance
1 | 1.5 | – | Fbs mutant S155A (from UniProt Q9UK22 113-296)
2 | – | 2 | Fbs mutant S155G (from UniProt Q9UK22 113-296)
